{"source": "paper PMC8877407", "biological_target": "recombinant L. infantum GDP-mannose pyrophosphorylase (LiGDP-MP) (Leishmania infantum)", "test": "SEC; Superdex 200 10/300 GL, 50 mM Tris-HCl pH 7.5, 1 M NaCl, 1 mM DTT, 10% glycerol; concentrated Ni-NTA fractions loaded; sizes estimated from elution volumes against standard proteins", "note": "Where “and” joins values, the source holds several entries; their conditions need not be identical. Identical values can stand only once."}
{"substance": "recombinant L. infantum GDP-mannose pyrophosphorylase (LiGDP-MP) (enzyme)", "values": [{"measurement": "stoichiometry N", "value": "6 and 3"}]}
